Laboratory results taken from paper PMC3852489.

Target: S377-588-Fc (residues 377-588 of MERS-CoV spike protein fused with human IgG Fc) (MERS-CoV) (UniProt K9N5Q8)
Assay: SDS-PAGE of non-boiled against boiled sample

**Q.** How did the stoichiometry N turn out when “S377-588-Fc (residues 377-588 of MERS-CoV spike protein fused with human IgG Fc) (from UniProt K9N5Q8 377-588) (Fc fusion)” was run?
**A.** 2
